Source: the DeepSol protein solubility set

Experiment: soluble on expression in E. coli; label from the status in PepcDB or PDB records
For “MQTQQERISTGVKGLDELIEGGLIPGRVYLITGPPGSGKTTFGMQFLLEGARRGEKVAYISLIHKPEEVVRDMVRFDPSVYVYVNNWRLILYDLGPILWRESTKVPTWRSVLSRIREITENEKITRLVIDPLTAIDFPLQDPVEKRVELAKFVRSLENLGVTTYLIAEMVELDKYSEEHYLVSGIIMLHYFMHEGRMIRAIQIFKMRGTKHDPNLKLLKFTDQGLVVYNKSPFEVV”, the “soluble on expression in E. coli” value was “soluble”. For “MQTSIISAQSLSKLVSTNQEHLTILKQVNLSIQAGESVAIVGASGAGKSTLMTLLAGLDTPSEGEVYLLGKPLSQLDDEARAALRSESVGFVFQSFLLIPSLSALENVTLPCLLKGEAEDRERAQKLLKAVGLEHRMHHSPAQLSGGEQQRVAIARAFMISPQVLFADEPTGNLDQETAAKVIDLLFELNREHGTTLVLVTHDPKLAQRCQRRFFMQAGELEERV”, the “soluble on expression in E. coli” value was “not soluble”. For “MQTYGGGWVLFQNRFDDSESYWDRKWDEYKNGFGDVDENSNFWLGNEALHVMTTNKKVTLRVEMYGDRTPNSKNATDFWFGHYFDFQVGSKTQNYPLLDLTMDWANPIGNASTAWYDLTCSIGSPFSTIDNIHDPVKECVTKFQMG”, the “soluble on expression in E. coli” value was “not soluble”. With “MQVASRVKARRLEMNLTQEGIALRAGMKLPTYRRFERTGEISFRGLLQIGFALNALQDFALLFDQRLYQTLDEVLAEQQPKRKRGSKK” the “soluble on expression in E. coli” value was “not soluble”. In the case of “MQVISPSSPAPRFAGKERFSEVYGELNDDFGSKLKISSKEEENRDDDSWWNQNGTDKDDEGREEDFSFASVNADNSPITADEAFEDGQIRPVYPLFNRNIFFDDPEEKTLRSPLKKLFVESTTTEEEEEESDTVGPYCSWTNRTVEQASPETCRKSNSTGFSKLWRFRDLVLRSNSDGKDAFVFLSNGSSSTSSTSSTAARLSGVVKSSEKGKEKTKTDKKKDKMRTKSAHEKLYMRNRAMREEGKRRSYLPYKHVGFFTNVNGLTRNVHPY”, the “soluble on expression in E. coli” value is reported as “soluble”. For “MQVNRLPFFTNHFFDTYLLISEDTPVGSSVTQLLARDMDNDPLVFGVSGEEASRFFAVEPDTGVVWLRQPLDRETKSEFTVEFSVSDHQGVITRKVNIQVGGVNDNAPTFHNQPYSVRIPENTPVGTPIFIVNATDPDLGAGGSVLYSFQPPSPFFAIDSARGIVTVIQELDYEVTQAYQLTVNATDQDKTRPLSTLANLAIIITDLEHHHHHH”, the “soluble on expression in E. coli” value was “soluble”. For “MQVSDFHFELPDELIARYPKAERTASRLLQLDGNSGQLVDGTFKDVLELVEPGDLLVFNNTRVIPARMFGRKASGGKLEVLVERMLDEHTILAHVRSSKPPKPGTELYLGENDEFHAVMQARHDALFEIRFTAETVVLDILNQIGHMPLPPYIDRPDEEADKERYQTVYNQKPGAVAAPTAGLHFDQALLEQIQAKGVELAYVTLHVGAGTFQPVRVENIHDHHMHAEYVEVPQEVVDAITATKARGGRVVAVGTTSVRSLESAAQDALQKGTELKPFFGDTEIFIFPGYQYQLVDCLITNFHLPESTLIMLVSAFAGYEHTMAAYEHAVKEQYRFFSYGDAMFIRKQMTKA”, the “soluble on expression in E. coli” value was “not soluble”. In the case of “MQVSLPREDTVYIGGALWGPATTWNLYAPQSTWGTDQFMYLPAFQYDLGRDAWIPVIAERYEFVDDKTLRIYIRPEARWSDGVPITADDFVYALELTKELGIGPGGGWDTYIEYVKAVDTKVVEFKAKEENLNYFQFLSYSLGAQPMPKHVYERIRAQMNIKDWINDKPEEQVVSGPYKLYYYDPNIVVYQRVDDWWGKDIFGLPRPKYLAHVIYKDNPSASLAFERGDIDWNGLFIPSVWELWEKKGLPVGTWYKKEPYFIPDGVGFVYVNNTKPGLSDPAVRKAIAYAIPYNEMLKKAYFGYGSQAHPSMVIDLFEPYKQYIDYELAKKTFGTEDGRIPFDLDMANKILDEAGYKKGPDGVRVGPDGTKLGPYTISVPYGWTDWMMMCEMIAKNLRSIGIDVKTEFPDFSVWADRMTKGTFDLIISWSVGPSFDHPFNIYRFVLDKRLSKPVGEVTWAGDWERYDNDEVVELLDKAVSTLDPEVRKQAYFRIQQIIYRDMPSIPAFYTAHWYEYSTKYWINWPSEDNPAWFRPSPWHADAWPTLFIISKKSDPQPVPSWLGTVDEGGIEIPTAKIFEDLQKATMHHHHHH”, the “soluble on expression in E. coli” value is reported as “soluble”. In the case of “MQVSVTGDFVGHIQELIRTEVLPYQWEALNDQIAGAEPSHCLDNFRAAAEKKGHIQFHGQPFQDSDIYKWIEAAAYTLAWHPDSDLEAKADQAIELICGAQQPDGYLNTYFILTGAQRWTHLLDGHELYCAGHLMEAAVAYYHATGKDKLLKAAQKLADHIADVFGTSPGKIPGYPGHPEVELALIRLFEATGNIKYQQLAQYFICQRGASPSIFRKEADQFGWDWADSPFQFQFYQAGKPILEQTELEGHAVRALYLCCGIADVAARTQDAALLETCRRLWEDLTQTKLYITGGAGSSVYGEAFTFAYDLPNDTAYAETCAAVAVCFFAQRMMKISPSGAYGDVLEQALYNGVLSGMALDGKSFFYVNPLEVVPEACQKDQRKKHVKPIRQKWFACACCPPNLARLFASIGGYLHFIRAETLYTNLYVTSTSEFTFQGLPIKLHMDSAYPFDEKIHISLSLPRPMEFSYAVRIPAWCADYHVLINGKICAGTLKDGFLYLHRCWRDGDEVELTLSMPVRVVRANSLVRENIGKSAICRGPIVYCMEQLEHHHHHH”, the “soluble on expression in E. coli” value is reported as “not soluble”. In the case of “MQYDYLEALVKDLSLYKIKTEINMKNLRIWQTLSLWLVLLVTSLPLSAQTALLEKLGKIADITGTQPLESTEFVEKYVAYFTQPLDHRHPEKGSFSQRVIVSHVGFDRPTVMVTEGYGASYALGANYREELSKLFNTNMIFVEYRYFLESTPTPKDWQYLTAENSAEDLHAVREAFRSIYPGKWIATGISKGGQTAMLYRTFFPEDVDISVPYVAPLCYGVEDGRHEPFLKMVSTPEARKKIEDFQLEVLKRKPTLLPRFEKYCAGKKYKFRAPVEEIYDYSVLEYSFSIWQWGTPVDQIPAVTASDDELFKHLLAISEPSYFEEEGANTSFFVQAARELGYYGYDIRPFKKYLTIKTSKDYLKRLMLPEELGDMKFDKTLSRKIIHFLKNNDPKMIFIYGQNDPWTAAGVTWLKGKKNIHVFVEPNGSHLARIGTLPQKEKEEAIGLIKKWLEE”, the “soluble on expression in E. coli” value is reported as “not soluble”. In the case of “MQYVAYAEGAKMASGAAKETSSNLFGIWDTWNSNPQMRKDHANELKKKSDEAYNNDMEELKKTRSAFDQEIAKRHAAADMQMSELVKSNNTELKTLQDQFNRDEASHGMAMKMMVREHAEKMKELRSEGREAQERAEREHRMKMSEAEEEHRKEKEIAQEKMDAAKREGSMKIALVEEEKQKIMKERSDELEKYTREMNEMAKNHQEERKKHNAIIGQKKMEMIGSKRDQLKIESEKILESMRNDINLLLAVEIKQNGSHLVEKLIDLFESVKTVKCLMDTVQTELTTIGDEVPEITPGQLSTFDDIKRHKTLFDNRVARFRKNVVTSSFTDAKLYEICMTTVSDFEKIMDKQDMKLVCHHLPKAVENQDFKKIKYYADMASKLNNQFSQEVQHLAAGFSNVSKTYAIDRSNQAAIQN”, the “soluble on expression in E. coli” value is reported as “not soluble”. With “MRAIRVHEVGGPEVLRLEELPVPEPGPGEVLVRLLAIGVNFIDTYKRKGLYPVPAPFTLGEEGAGVVEKVGEGVVGVRPGDRVAFANVQGAYAEYLVVPAERLVPVPEGLDPKLAAAALLQGMTVHYLLKSTYPVAPGDQVLVHAGAGGVGQLLIQWAKRLGATVYATASTEEKRGLCLQAGADYALPYEGFAEAVKALSGGGVDVVYDGVGKDTFLGSLAALRPRGMLVLFGQSSGPVPPQDPQILNRMGSLFLTRPTLHHYTASRKELLFRPGEVFRGVLKGWLKVRIGAEFPLENARKGPRGPRGPKDHGQGPPPALGRGNRAHFSGSGVVYYGPFQGLM” the “soluble on expression in E. coli” value was “soluble”. In the case of “MRAKKRKFLQKEELSKLLQSLDMSQIGFGWFVMLVAKTGMRYAEALAITPADFDWTAQTISINKTWDYKYNKGFAKTKTLSSVRTIKIDWQIVGQFKPLIKDFPEDEPIFVEKFGDGTYKRQFNSTINNFLAVKCNETGITQISFHALRHTHASVLLAEGVSIHTISARLGHADVGVTQETYALEHHHHHH”, the “soluble on expression in E. coli” value is reported as “soluble”. For “MRALRRGKGITLKQLAKALNKNISRGEAKNTESQIGNWERGERNPNYLEVKKLADYFDVSIDYLVGRYNNDQVDLAKAMITSSKLTYNDTPLDNNDKYEILQLISGYLHARGRRSTGDLININHQESLDLFNNQNDF”, the “soluble on expression in E. coli” value was “not soluble”. With “MRAPLSTYRRPQRTDFVTPTGGPFFAKQDKALNTIDLKMAHDLKLRGYRVKVAVVDEGVRSDHPLLNVEKKYGGDYMADGTRTYPDPKRQGRHGTSVALVLAGQDTDTYRGGVAPNADLYSANIGTRAGHVSDEAAFHAWNDLLGHGIKIFNNSFATEGPEGEQRVKEDRNEYHSAANKQNTYIGRLDRLVRDGALLIFAAGNGRPSGRAYSEVGSVGRTPRVEPHLQRGLIVVTAVDENGRLETWANRCGQAQQWCLAAPSTAYLPGLDKDNPDSIHVEQGTSLSAPLVTGAAVLVQDRFRWMDNDNLRTTLLTTAQDKGPYGVDPQYGWGVLDVGRAVQGPAQFAFGDFVARVTDTSTFGLEHHHHHH” the “soluble on expression in E. coli” value was “not soluble”. With “MRAPRWLWLVILLSGSAAADWREVLPNAQVVGGGELTLFGFRVYTARLLSPAKPFVADAPMALELTYHRNIDREDLVDASIDEIKRISGARVTTEQLAAWREQMNQSFVDVQPGMKITGVYLPGREARFYVGDKLQHVVPDSQFAKAFFSIWLDPKTRNPELREQLLGSTGS” the “soluble on expression in E. coli” value was “not soluble”. In the case of “MRASRKRLHTTNLRWNMSQKHWSKVQLLHEVVKNPNIIIKGKHSYYSDCWDAGFEASVVRYLHGDEISQRWDPLWEIDQLVIGDYVCIGAEVVILMGGNHTHRADWFCLYPFMDVIEQAYVGKGNTEIGDGAWLGMRAMIMPGVKIGEGAIVAANSVVTKDVAPYSIVAGSPAQLVKYRFDAKVIDELLALKVYDWPPEKFTALKSYLCALDLAALKQAVIQYDAEPHNPLS”, the “soluble on expression in E. coli” value is reported as “not soluble”. With “MRCMSDDHTHVQEFFEARAADWDSRFPDDGPAHAAAVAELGLREGDRVLDAGCGTGRALPSLRAAVGSSGVVVGVDLTPAMLAAAARAGRGRDGHLLLADVTRLPLGTESLDAVFAAGLIAHLPEPAENLRELARVVRAGGTLALFHPIGRAALAARQGRQITPDDLRAEANLGPLLAGSGWRMTSYVDEDARFLALAVRVKLEHHHHHH” the “soluble on expression in E. coli” value was “not soluble”. For “MRDALLGALDAGAVCVNVDLAHAGQQAKLEPDTPYGDALGVGAGRNWAHVNSIAYDAKDDSIILSSRHQGIVKIGRDKQVKWILAPSKGWNKQLASKLLKPVDDHGKPLTCDENGKCKDTDFDFTYTQHTAWLSSKGTLTVFDNGDGRGLEQPALPTMKYSRFVEYKIDEKKGTVQQVWEYGKERGYDFYSPITSVVEYQKDRDTMFGFGGSINLFDVGKPTVGKLNEIDYKTKEVKVEIDVLSDKPNQTHYRALLVHPTQMFKLEHHHHHH”, the “soluble on expression in E. coli” value was “soluble”. In the case of “MRDAQRPDLSTTFTVLLAGGRGSRLHELTSRECKPALPFAGPRRIVDFTLANAARSGLTRMIVATQYRPETLAHHLESRWASRFAGGSLRLREGTAVTGSPQGYGGTAAAVAANLAELQSEGVRELVVLAADHVYEMDYADMVAAHRASGASATVAVDTVPTDRASEFGVVRTSEGGRIESFLEKPAVVPADPAIPGRAQVSMGIYVFDLDWLASVLRIIPGATQDFGHDILPLAVALGEAHAYRVPGDNFYWRDVGTLDAYRLAQLEFQTGEAPCALPPRIAASEHEMKAATGELIQFAFRMQTGGIALHSPRLGGDLPGRWTMLDESVLLPGARVAPGVRLTRTIVAPGTSVPAGLVIGEDPDEDARWFRRTEEGTVLVTTPMLARRAADRGRLVAPFADSRMGRSALEHHHHHH”, the “soluble on expression in E. coli” value is reported as “not soluble”. For “MRDFGEILAENRKKKGYSQSDLVNLLSQEGIQVTTKALSKWENNAREPALHVFLTLCQLLDIEDIYESFFGENPYNIMSGLNEEGRNKLIEFADILKASKKFSPLSAKIIPFHHPVEITWEPVSAGTGNYLEDSVKETYDVGHLAPEQTDFGVRISGDSMEPLYHTDDVAWIQKKDSLANGEIGIFYLNGNTYIKELHDEPDGVYLISLNQKYRPIQVLESDSFKIFGKVIGKCKGAEIPGFHLEHHHHHH”, the “soluble on expression in E. coli” value was “soluble”.
